According to the supplement of paper PMC12042874:
± gives the uncertainty stated by the source.

Experiment: amyloid nucleation score (Sup35N fusion, yeast selection) (log enrichment); library NNK1; higher = more nucleation; inactive = no reads after selection
Procedure, shortened: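 Peptides of 20 random codons fused to Sup35N were expressed in psi-negative yeast, induced 24 hours with 100 μM copper sulfate, then grown 7 days at 30°C on medium lacking adenine and uracil. Input and output plasmid inserts were Illumina-sequenced. Nucleation score is the DiMSum log enrichment of output over input reads, centred on the mode score of non-aggregating sequences, excluding sequences with under 100 input reads. Random libraries had three technical output replicates.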

Substance	amyloid nucleation score
LWFSYATCICIPRIPSNC	6.26 ± 0.071
LWLRSLIVYYNSFVDMGGCA	0.549 ± 0.3
LWLRYGL	0.415 ± 0.72
LWRNKTHISVLQRGQVYHQT	0.182 ± 0.57
LWSYRDFRQVSTELN	-1.15 ± 2.7
LWVTRRPVGGFMW	0.721 ± 0.79
LWWSSSLLASTAQCQGTGFM	-0.255 ± 0.76
LWWYFHRTL	-0.168 ± 0.65
LYAAYCRQGTTHAIR	-0.389 ± 0.54
LYCNVISILACFVTTIRGRG	3.64 ± 0.16
LYFQAFHYQQWCIWFYFYIL	1.42 ± 0.49
LYHIGIGLKRSFNDAYV	0.038 ± 0.44
LYIGIPYVGVWNL	0.282 ± 1.2
LYKDGQGSKEAIVSRVDCMS	0.892 ± 0.25
LYLSWSFSALSV	-0.593 ± 1.2
LYNFVGSNRIRFASCTQLLC	1.87 ± 0.38
LYPMGYVRRCI	-0.29 ± 0.54
LYQCRNDCCYDWMLWYTWRS	0.505 ± 0.34
LYRDSLKLF	-0.725 ± 0.49
LYRSLLN	-0.23 ± 1.1
LYWSPVWM	-0.232 ± 1.5
LYWSQIEVVNPQTTEGLNRD	-0.528 ± 0.61
MALLARFRGAFLVCSGFIAC	-1.56 ± 2.4
MARVC	-1.56 ± 2.4
MASTESNPIKLLKVHLKYTS	-0.97 ± 1.4
MAVSNLSDLRLMSMRHFS	-0.794 ± 0.95

Substance	amyloid nucleation score
MCIFICLPVTVYDNIFHSFL	6.22 ± 0.096
MCLTRSSLEVRQVTIVMWSG	0.387 ± 0.52
MCPSIQCYNNYILLQRSVIR	7.08 ± 0.073
MCSERMGFFIVSGVVLKLTH	0.814 ± 0.57
MCSSKPSGPLAVN	-1.02 ± 0.52
MDAFTNAWVMGWCMLHCARG	0.524 ± 0.7
MDCCYYFFLIF	4.15 ± 0.052
MDKSELK	0.128 ± 0.86
MDLGRMSSGFMRSNMNKKVR	0.519 ± 0.4
MDPIPREAQVKVLSSHTTIG	0.606 ± 0.53
MDRDASYHGYIGHLLSWIGM	0.886 ± 1.1
MDRIRFLFFW	0.448 ± 0.69
MENEWIVTSCFLFWINFYSV	4.23 ± 0.072
MENISLINGLETMYPIDRLT	-2.15 ± 2.4
MERPGNCVGWRRCPLHVTNG	-0.292 ± 1.2
MEWDAYVMI	0.442 ± 0.84
MFAWLDDLFRY	-0.3 ± 0.38
MFCKAVSKERWMV	-0.269 ± 0.92
MFGKLLICYRLYK	0.084 ± 0.75
MFLNII	-0.112 ± 0.74
MFQVVGRYNGVFLVTEPWTC	inactive
MFSVFNRKRN	-0.354 ± 0.26
MFTYDGRVEWVLA	-0.133 ± 0.45
MGILW	-0.328 ± 0.66
MGLSNSDADGRTLRNEHVKS	-1.35 ± 2.1
MGNIVTLHFSHVGHRYSKWV	inactive

Substance	amyloid nucleation score
MGRQEASMKRCTSGDVGGWL	0.523 ± 0.78
MHHCSFSSLDFTVHK	-1.02 ± 2.4
MHMGFAWMSLIM	inactive
MHRSFFHVM	2.33 ± 0.52
MIFPDQYYYSISPW	-0.115 ± 0.28
MIGNRY	0.091 ± 0.26
MIIRLVLVGSSYKNVPSAEG	0.137 ± 0.49
MILLKCIYY	0.179 ± 0.39
MIMKYLSDVLTRIGHDIFFA	-0.872 ± 1.4
MINVYK	4.33 ± 0.073
MISLHVL	-0.109 ± 1.3
MKDSGCPSGNNTALEGASLI	0.269 ± 0.49
MKFRINVDLLLNLDNPGIKL	0.165 ± 0.45
MKMRFVVSLMNSERSSGRNE	0.9 ± 0.5
MKQALMGVVMIHWGGRSRV	0.687 ± 0.54
MKQFIKNLNISLPPARTQLT	inactive
MLEESVLHSLLICGANSVFK	0.195 ± 1.1
MLFPSVSKRLNVSALNCKNP	-0.083 ± 1.4
MLHYSARGFRRHK	0.326 ± 1.2
MLKMTVYFHIMID	-0.065 ± 1.1
MLLLSVSLSLKID	4.35 ± 0.095
MLLPSYVEF	1.46 ± 0.34
MLNVEGNTLKSWIYGRHLVP	0.097 ± 0.69
MLRMLAVQCFSSCIARLD	2.05 ± 0.3
MLRTMG	0.746 ± 0.5
MLSMFGWISSIFVYYYLNKR	0.571 ± 0.17

Substance	amyloid nucleation score
MLSNGGLHVRSK	1.31 ± 0.93
MLSVSWFAVAMVYMGMNNTC	2.04 ± 0.48
MLWSKKGTGNYRYCRTGYTG	0.322 ± 0.49
MLWTCKDNLCKDMTHVWSIY	inactive
MMGGKDCQFYCSIPLFRVMM	2.2 ± 0.16
MMPFYHSNSR	-1.38 ± 1.1
MMSSEVLPINSCIRSWANAL	-0.431 ± 0.29
MNLYNRNYLYCIYRKETTTT	-0.957 ± 1.4
MNVGCSVVWIKCLNACTSKQ	6.168 ± 0.06
MPCHAFAKMFVQSEFSGSVC	0.498 ± 0.97
MPCNVGMGWCRVVNWWGLYG	0.604 ± 0.44
MPKAQDALTLKNGELKRLSG	0.295 ± 0.4
MPLAKSPLTLG	4.39 ± 0.062
MQFCVEYTRPVRYQLWGSLM	0.327 ± 0.83
MQNCISLL	-0.483 ± 0.4
MQSMQL	inactive
MQVNIVGVSILVAWPR	6.48 ± 0.071
MQWSYV	0.32 ± 0.37
MRASTFNYSYELKINVVCYT	-0.918 ± 0.53
MRCISYIYEHAL	0.567 ± 0.66
MRDLK	-0.405 ± 0.53
MRHGSKAWQLYRLFKYDFFW	0.534 ± 0.9
MRPVGTRFSSIP	-0.201 ± 0.55
MRRCTGMLCYTIS	0.97 ± 0.53
MRTDFERHIVSYVSELCKLP	-0.162 ± 0.73
MRVGIWDKMRSLRCDISAC	0.293 ± 0.66

Substance	amyloid nucleation score
MSDRKCKKDSRYLWRDLLPE	0.264 ± 0.46
MSFQY	-2.11 ± 1.9
MSGVRYLCCL	0.087 ± 0.58
MSIAMDGYFYPSSAAPFFIT	-0.156 ± 0.42
MSIVCFCW	8.155 ± 0.047
MSVEIVTIGGGF	-0.481 ± 1.4
MSVVWSWMYFIKLDTFA	-0.348 ± 0.23
MTAGLHQ	3.47 ± 0.082
MTEQVAANAEDWSVVGNWLV	0.43 ± 0.5
MTLRLS	0.375 ± 0.41
MTPKLVQSRT	0.106 ± 0.91
MTPTTWLYPVILTSSLS	0.44 ± 0.84
MTSAGSAWVYSYFYLGLIRK	-0.143 ± 0.53
MTSCMRWAVNRYSFLLWKAN	-0.416 ± 0.29
MTTHVRWFNGLMSP	inactive
MTYTSWMMNRFNITNSYNLV	0.755 ± 0.97
MVDMILLGRNFINKRMLCLG	0.019 ± 0.64
MVGSAVVFVLENLGVTGSWG	0.072 ± 0.84
MVIYR	-0.517 ± 0.75
MVLWW	-0.231 ± 0.58
MVWPFKRRRWHYGILALLDR	-1.22 ± 0.75
MWAAGDNHYSNKVLSLAMVV	0.501 ± 1
MWWAHDGFRSCLRHISHADG	0.349 ± 0.91
MWYNCFMTNPGFQLSPMGSI	0.851 ± 0.55
MYFSIRDCCSYAFNSFDIYG	5.508 ± 0.047
MYGNES	-0.02 ± 0.4

Substance	amyloid nucleation score
MYHLSGVSYMFSLCSDCRRL	8.122 ± 0.066
MYKAEICLMSLENRPLMLPF	0.203 ± 0.44
MYLVDASMSKPLIVLKSCN	0.686 ± 1.1
MYMGAPSIVVIVMLQNMKFV	2.34 ± 0.32
MYNNTALRRSEYADCH	0.872 ± 0.8
MYSKIYIFNLEFLMTYWNAL	1.92 ± 0.3
MYYDMLSCFGEVKRS	-0.183 ± 0.79
NALRVV	-0.637 ± 0.68
NAQWKHETHIFCSAMFVTEC	0.878 ± 0.45
NCFRTSCKSGEWLQLFIRRG	0.275 ± 0.39
NCMKLLEQRGGCLQANGF	2.09 ± 0.15
NCNLSQWLIRQPKRAVSTHT	0.243 ± 0.33
NCSDQALDLQGSMSVQKIFR	-0.533 ± 0.88
NDDTLRSTKVIEHLFP	0.698 ± 1.2
NDLFMESLL	0.025 ± 0.43
NDRPMMEVGMDPTPAGVLRE	0.276 ± 0.49
NDSICIVVLS	-0.009 ± 0.84
NDTFSYCSTSGDRFGT	1.4 ± 0.24
NDTSNPVTLCHFV	0.408 ± 0.48
NDWVY	1.12 ± 0.53
NDYTELEIFCNLLRLMFWVV	-0.162 ± 0.48
NEHQVNEG	0.478 ± 0.48
NELWCKADVMS	inactive
NFCFTVFLEVNAVKMRIYF	-0.798 ± 1.1
NFFVSRLISQPHLGTYYAS	inactive
NFGNVNFVYVTWMVAESSAC	5.915 ± 0.057

Substance	amyloid nucleation score
NFICLHQNNMLISPKGTATR	0.672 ± 0.31
NFLFAYVLALRLFMYSVNMW	4.5 ± 0.054
NFTICLGRSTEHPGIRFDAG	-0.207 ± 1.9
NFTTVAVLRFNDNGR	4.43 ± 0.066
NGCLQRKNWLVSGSFLHFVD	-0.295 ± 0.72
NGFDTKYSLEGLGYSWPMLV	0.407 ± 0.41
NGHLRSINTSSARCMPAVFT	-0.112 ± 0.53
NGINSVRKDLLFYNLQR	0.107 ± 1.1
NGITLLGAVAFTVFLLYPRT	-0.215 ± 0.41
NGKGFNDVVKLRSGRRWGVR	-0.111 ± 1.4
NGKVYVELKEWDLRVVGSLR	4.44 ± 0.095
NGLWVGHLVLDGIYSA	-0.564 ± 0.33
NGNDDLSQTTEVKGYVGATL	-0.3 ± 0.37
NGRENWSDETGSMFECALYS	1.28 ± 0.44
NGVPWG	-0.21 ± 0.95
NHCCRVFMCFRIRGMYNAET	4.05 ± 0.085
NHFVALLSGIGVCSFWKKFG	-0.257 ± 1.5
NHGCQIFRG	0.667 ± 0.64
NHSLMGVSTSFWI	-0.334 ± 0.45
NHVYCVWMRMFMIYFNL	-0.17 ± 0.54
